Experimental data as given in the DeepSol protein solubility set.

assay: soluble on expression in E. coli; label from the status in PepcDB or PDB records

| Sequence | soluble on expression in E. coli |
| --- | --- |
| AHHHHHHGSKIPDDVRKDIPLTQEVIYFDNTATSLTPKPVIEAMDEYYLKYRANVHRGVHRLSQMATQKYEESRKVVADFINAKFEEIVFTKNTSESLNLVALGLEHTFKKGDKIVTTPYEHHSNLLPWQRLAKKLGLKLEFIEGDDEGNLDLSDAEKKIKGAKLVAVQHVSNALGVIHEVEELGRMAKEEGAIFVVDAAQSVGHMEVDVKKLNADFLAFSGHKGPMGPTGIGVLFISEEYFDVFDPPLIGGGTIEDVDLCCYKLTEPPERFEAGTPNIGGAIGLAAGIKYIEKIGIEKIEKQERKLVKRTTEGLDELEIPWYGPRNLDKHAGVVSFNVPPLHPHDVAAVLDEHKIMVRSGHHCALPVMKKLGINGTVRASFHVYNSVEEVEIFLGVLEDLVRKIRGAL | soluble |
| MTTQITAEDVEAYLGTRENSPTMSDTVDAAVDLVESWKSTPQEKWPPRWRRGCIMLAARMDRRRNSPAGVDTMGEIGVVYVSRKDPDIAQLLEIGDFSKPIAR | not soluble |
| MSLHLARVDRQWPRPLQPLGNTCSMMLIKQFPDISLNDTLFVFALEAEAGDVFTEVNTVFTGIGKVNAAIALTKAIATRRPKLIVNLGSAGSQRHGKGEIVCCNRFVQRDMDVTALGFARYETPLSDTPVVLEHGAAIPGLAVETCGSGDSFEINHGDAPYDVVDMEAYVLALIARGEGIPFVCLKYISDDAGSEAAGDWAVQVHLAAEAFKRVLFSQAEGHHHHHH | soluble |
| MGSDKIHHHHHHMTNENLCAGRNRYDGVSIDFFSDADLRAIDSATMDVFQNPGIQVSDAESRALFKEAGCDVNEKTMVVKIPEHVVRRAIMTAPSKITLYGREKQHTFTQQAGGKVHYTCFGTGVKMCKYEAPGVFKTVDSTEEDLANTARVCDWADNIDSYSLAVSARDWAGKGAQDVHETFTPLMNTSKHFFHIDPVGENVEYYWDILKAYYGGDEEQARSRPIFSELLCPTSPLKIGTNACQLILKSVNFGIPINVISMAMSGASCPVHLAGTLVTHNAEVLSGIVLAQLASPGAKVWYGSSTTAFDLKHGTAPVGSPELGLISAAVAKLGQYYDLPTYVAST | not soluble |
| MTTKYAALLRGINVGGSRKVPMADLRALLTSLGHDAVRTHLQSGQAVFAAAHGDEDSLAAELAEAIGERFGFPVDVIVRDHAYLRSVVEACPFPAAELEARQLHVTYFSAPVEADRFAAIDAPAFRPEEFRLGDRALYLYAPDGLGRSKLAEALARPRVNKGLVATSRNWNTVTKLVELTGP | not soluble |
| MSLQVEKISIIGLGLIGGSLAKALKEKLGIESITAVDINEKSLSQALKEGFIKEGFTELNESVYNSDIIFICTPVKDAVEYITRLHGKVKAGCILTDTASTKGEIIDYVNSLDNPPCFIGGHPMAGTEKAGFSSSFSHLFENAYYIMSPSKNCPEESLEYLAEIIRGIGAIPIKLDSKEHDIITATISHVPHVIASALVNLVKFSDSPDGKMQTLAAGGFKDITRIASSNPKMWENIILSNKEIVKSTLNKFTETINTFIEYIDNENSNGIYNFFDSAKKFRDSIPNNRKGLIEPQNELIVDVVDKPGIIGEIATILGNNGINIKNINVSNSREFEQGCLRITLPDSGSVAEAYELLAKKGYKVFKIEGHHHHHH | soluble |
| MDSRIAIYVLVSASLLYLVNCHKLVHYFNLKINGSDITNTADILLDNYPIMTFDGKDIYPSIAFMVGNKLFLDLYKNIFVEFFRLFRVSVSSQYEELEYYYSCDYTNNRPTIKQHYFYNGEEYTEIDRSKKATNKNSWLITSGFRLQKWFDSEDCIIYLRSLVRRMEDSNKNSKKT | not soluble |
| MGSDKIHHHHHHMTRGIALFFWNRKKATKKISPEPEAAQEVWQRKKYRTNYYTYNSAKERGSLRSKKQRKHEIGEYKLEVGLAHLPRCFRRLSNLLLGTKGRFHQIDHVLISPYGIFLLEANNLSGLIVGEETESKWYQAITWRVKTFPNPIMENQVRVQMLQELAGLDQTIPVFSYVTFNRSCSLKVFSGMVFYDIDLPASIMQLAQNQPAVLSDEEILELVERIEKINLTDLGLRNEYAARQRRERMQYRPKYGDIRCSICQKAVNERMARYCLNRPEKFAWKIYCEKHQREMTRVVRREGGREGHGPYPESTDSKKESMD | not soluble |
| MSLKKMSIKVPGKLFFAGEYSVTKEGNLALITTIETNFEVRISATTGKSIFKTNVGLSDFEFSLSKIEFTKENPWNFALTALKNTLSAADSFEKKSVSKILSSSPEISLEIVSDLGFGENKKGYGSSASVVCGLVNAVNQFFDFQLSLEKRFEIAAKTHFEVQGSGSMGDIAAIMYGGSVFYQNHKRVIPLEIPWATYVVQTGKAAKTSEKIKIKLSDEFYQASNELVIELATAIDIQDFALFKEKLSENQLLLLENIPEGYMTKELAIALNLLNSYPEFAAKISGAGFGENIILFAQNTQAIAEVQNKLSEYGINLEKFKVAQKNNEGHHHHHH | soluble |
| MAHHHHHHMGKFVAEQYLRRGVSVTVLARDIAKAKSLFLPIADGQREQNRLASMGYRQLSSAAEKREMTASLHYRDFRRGDRHVLRYEFRNPRSVGGPSAGSANASCDQRFALELVEGDVGSTQDLEFSMRHASIVFYLTAALEEASGPALRADDRLRSSAAWWSLGSWFCGGRRFGGFLHALDACRRVDAHFVALTPLWVHGSCLSPFYWYRRLLTHPRGYCKAVQLQEQTLLSQSGSPGARCSLGADELEARQPGGDWGCWWRSRLSTEPPDDILIKSRSPVRFSLFRLSDVVFPSFNERIVASKNNRVDDDLHVTFIQQGDLDARLLANVLVKSIGLCNSVVESRIDIGGSLRGGTDMRDANAIFDLFEQLRNE | not soluble |
| MGSDKIHHHHHHMFDKQEFVSKLVTEEKAKIVLLVMDGLGDIPVNGKTPLQAANTPNLDNLAKESDLGQTIPVLPGITPGSGPGHLSLFGYDPIKYQIGRGILEALGIGVEVGEKDVVARANFATWDGKVVLDRRAGRPATEESAKVVQLLSEKIKKIEDVEITFYPGKEHRFVVKFTGEGLGDKVTDADPQKEGHPMVWAEGLDEPSKKTARIVNELIKKIAEVLKDNPKINFALIRGFSKYPDLPKFPQVYKMKAGAIATYPMYRGLAKLVGMEIIETGQTVADEIKTLKEKWNDYDFFYVHVKKTDSYGEDGKFEEKVKVIEEVDAIIPEIVSLNPDVLVITGDHSTPVPLKAHSWHPVPLLIWSKYTRRGLSQAFNEFECARGTLGTIHASDVMTLALAYAGKLEKFGA | not soluble |
| MQKDYQKLIVYLCDFLEKEVQKRGFKKVVYGLSGGLDSAVVGVLCQKVFKENAHALLMPSSVSMPENKTDALNLCEKFSIPYTEYSIAPYDAIFSSHFKDASLTRKGNFCARLRMAFLYDYSLKSDSLVIGTSNKSERMLGYGTLFGDLACAINPIGELFKTEVYELARRLNIPKKILNKPPSADLFVGQSDEKDLGYPYSVIDPLLKDIEALFQTKPIDTETLAQLGYDEILVKNITSRIQKNAFKLELPAIAKRFNPELEHHHHHH | soluble |
| LSAGALKATASQQDKPESQYGLAGQLQAAAGQQGVTAQQQTRAEAAQQAQLPLQLTKELANEQVAEKVQMMMSKNLKNLDIRLDPPELGRMQIRMTMNNDLANVHFTVTNPQARDIIEQTLPRLREMLAQQGMQLADSSVQQQS | not soluble |
| MEEEFSMFIMSMSNSMSSLWPAPIEMDSIDEGTENVANIASRWSTCCNIIRLHIEQMIGCEVDVAVAKSTDLGVSMTRGNSDSKLEPISTLLSTISKTIESNGEANAEFAIREIEKMNKSCETEYKIKKFHWFIDVEMFLNIKLALLDREFPPNLTVYVIGELKTLYDDYEAAKEVATNFERSSVNLRFLLCPADLKELNREIIAEKRQKMSEKEIICRFGSDKFKIKLFKKQKIGSHVTLIDSISFLGFLPEIELCRQGFLGSKRSNKLKMDITTDSKLGNKILFSLSQYLLNETKRPQTALFSFSSKPKLRGFCIMVAYESENDETSITLIQLKASLGKCLWKTLKFVNQSGEHSRPLPDDSYEQIAPIERKQLKRRLSRIERIASSVEEKRAQFEAFAREYDALDARDAFMKFTSTWQTDQGLLTAPTPFEDDNNNK | not soluble |
| MSLYKVYGDYQSGNCYKVKLMLSLLGRPYEWHPVDILKGETETPEFLAMNPNGKVPVLELEDGSYLWESNAILNYLADGSEFLPSEPRLRTQVLQWQFFEQYSHEPYIAVARFIQFYLGLPDERLDEYRKLHKGGYKALKVMERQLQMTPYLVGEQYSIADVALYAYTHVAQQGGFDLADYPAVRAWLERVSSHPRHVPMVGEGHHHHHH | soluble |
| MSLDRPRCCLRGKECCINRFQQVESRWGYSGTSDRIRFTVNRRISIVGFGLYGSIHGPTDYQVNMQIIEYEKKQTLGQNDTGFSCDGTANTFRVMFKEPIEILPNVCYTACATLKGPDSHYGTKGLKKVVHETPAASKTVFFFFSSPGNNNGTSIEDGQIPEIIFYTEGHHHHHH | soluble |
| MDYRIRTSRDEDAALLPAIERSAGESFRLLPELAWIADAGVAGVDFHRRLIERGSHWLAEDADGQPVGFLAAERCADELHIAELSIAQAHQQQGLGRRLLERAVTYAHASHCRALTLTTFCDVPWNAPFYARLGFQRLTWQEAGERLRAILGHEQEIGFAADSRCAMRLVL | not soluble |
| MNEKQKRFADEYIMNGCNGKKAAISAGYSKKTAESLASRLLRNVNVSEYIKERLEQIQEERLMSITEALALSASIARGEPQEAYSKKYDHLNDEVEKEVTYTITPTFEERQRSIDHILKVYGAYIDKKEITQKNIEINIGEYDDESLEHHHHHH | soluble |
| MRVNDVNLMRYIQQLSLERKAPTPGSFLFNTVSELAVQQKLRGQIEGYKTTLSQIYNGIGLLNTANAGLESISTALQRARELAVQASNATLTDVERSMIQKEYEEIMRGVKRIIQQTTYNEQRVLAGDVRNLVIQTGPNEGQNVTVNIPNLEETLSELFEVDLSTFEGAQRSLETIDQALENISQIRGNVGSWMNRLESSARSVMNSYTELFKTESLFEPSVAELLLESTKEDILRQTALTGILFRMENAGNVLKLLM | not soluble |
| MSLDNGEAAIIIGEFYKRNDQWKFRALSEGSAYGLSAFGRKIGLEVDDRHPRRPSGGSGGPAGGPRHESATGTAFVVGPAHVMTCAHVIEDMGVFYINSLEGRYKAEAVVIDRRNDIALLRVQGAPPLSAVTFREGQGCEPGDTVAVLGYPLASISGGGLQVTQGGISGLFGLHNDASLFQFTAPIQPGSSGSPLFDNGGAVIGMVTSTVPDGQNMNFAVKSALLMSFLQACRIDEGHHHHHH | not soluble |
| MGSDKIHHHHHHMKPIKEIADQLELKDDILYPYGHYIAKIDHRFLKSLENHEDGKLILVTAVTPTPAGEGKTTTSIGLSMSLNRIGKKSIVTLREPSLGPTLGLKGGATGGGRSRVLPSDEINLHFTGDMHAVASAHNLLAAVLDSHIKHGNELKIDITRVFWKRTMDMNDRALRSIVIGLGGSANGFPREDSFIITAASEVMAILALSENMKDLKERLGKIIVALDADRKIVRISDLGIQGAMAVLLKDAINPNLVQTTEGTPALIHCGPFANIAHGTNSIIATKMAMKLSEYTVTEAGFGADLGAEKFIDFVSRVGGFYPNAAVLVATVRALKYHGGANLKNIHEENLEALKEGFKNLRVHVENLRKFNLPVVVALNRFSTDTEKEIAYVVKECEKLGVRVAVSEVFKKGSEGGVELAKAVAEAAKDVEPAYLYEMNDPVEKKIEILAKEIYRAGRVEFSDTAKNALKFIKKHGFDELPVIVAKTPKSISHDPSLRGAPEGYTFVVSDLFVSAGAGFVVALSGDINLMPGLPKKPNALNMDVDDSGNIVGVS | not soluble |
| MSREQAILVGCQLAGVDDERFRYSMEELVSLVATANGEVVAEVTQKREAPHPATYIGKGKTEELAAIVKQLEPDVVIFNSELSPSQARNLTKMLGEVKVIDRT | not soluble |
